Measured values published in article PMC12374970, “NSUN2 facilitates DICER cleavage of DNA damage-associated R-loops to promote repair” (Nature Communications, 2025).

Target: T1, 6xHis-DICER (recombinant wild-type DICER) (human, UniProt Q9UPY3 1-1922)
T1 construct: DICER (endoribonuclease Dicer), human; expressed from pFastBac1-hDICER; See Addgene 89144 and the plasmid list in Supplementary Data 1; also called hDICER; recombinant DICER; source: Sf9 (baculovirus, pFastBac1-hDICER), purified (Ni-NTA)
T1 sequence (Q9UPY3 whole entry): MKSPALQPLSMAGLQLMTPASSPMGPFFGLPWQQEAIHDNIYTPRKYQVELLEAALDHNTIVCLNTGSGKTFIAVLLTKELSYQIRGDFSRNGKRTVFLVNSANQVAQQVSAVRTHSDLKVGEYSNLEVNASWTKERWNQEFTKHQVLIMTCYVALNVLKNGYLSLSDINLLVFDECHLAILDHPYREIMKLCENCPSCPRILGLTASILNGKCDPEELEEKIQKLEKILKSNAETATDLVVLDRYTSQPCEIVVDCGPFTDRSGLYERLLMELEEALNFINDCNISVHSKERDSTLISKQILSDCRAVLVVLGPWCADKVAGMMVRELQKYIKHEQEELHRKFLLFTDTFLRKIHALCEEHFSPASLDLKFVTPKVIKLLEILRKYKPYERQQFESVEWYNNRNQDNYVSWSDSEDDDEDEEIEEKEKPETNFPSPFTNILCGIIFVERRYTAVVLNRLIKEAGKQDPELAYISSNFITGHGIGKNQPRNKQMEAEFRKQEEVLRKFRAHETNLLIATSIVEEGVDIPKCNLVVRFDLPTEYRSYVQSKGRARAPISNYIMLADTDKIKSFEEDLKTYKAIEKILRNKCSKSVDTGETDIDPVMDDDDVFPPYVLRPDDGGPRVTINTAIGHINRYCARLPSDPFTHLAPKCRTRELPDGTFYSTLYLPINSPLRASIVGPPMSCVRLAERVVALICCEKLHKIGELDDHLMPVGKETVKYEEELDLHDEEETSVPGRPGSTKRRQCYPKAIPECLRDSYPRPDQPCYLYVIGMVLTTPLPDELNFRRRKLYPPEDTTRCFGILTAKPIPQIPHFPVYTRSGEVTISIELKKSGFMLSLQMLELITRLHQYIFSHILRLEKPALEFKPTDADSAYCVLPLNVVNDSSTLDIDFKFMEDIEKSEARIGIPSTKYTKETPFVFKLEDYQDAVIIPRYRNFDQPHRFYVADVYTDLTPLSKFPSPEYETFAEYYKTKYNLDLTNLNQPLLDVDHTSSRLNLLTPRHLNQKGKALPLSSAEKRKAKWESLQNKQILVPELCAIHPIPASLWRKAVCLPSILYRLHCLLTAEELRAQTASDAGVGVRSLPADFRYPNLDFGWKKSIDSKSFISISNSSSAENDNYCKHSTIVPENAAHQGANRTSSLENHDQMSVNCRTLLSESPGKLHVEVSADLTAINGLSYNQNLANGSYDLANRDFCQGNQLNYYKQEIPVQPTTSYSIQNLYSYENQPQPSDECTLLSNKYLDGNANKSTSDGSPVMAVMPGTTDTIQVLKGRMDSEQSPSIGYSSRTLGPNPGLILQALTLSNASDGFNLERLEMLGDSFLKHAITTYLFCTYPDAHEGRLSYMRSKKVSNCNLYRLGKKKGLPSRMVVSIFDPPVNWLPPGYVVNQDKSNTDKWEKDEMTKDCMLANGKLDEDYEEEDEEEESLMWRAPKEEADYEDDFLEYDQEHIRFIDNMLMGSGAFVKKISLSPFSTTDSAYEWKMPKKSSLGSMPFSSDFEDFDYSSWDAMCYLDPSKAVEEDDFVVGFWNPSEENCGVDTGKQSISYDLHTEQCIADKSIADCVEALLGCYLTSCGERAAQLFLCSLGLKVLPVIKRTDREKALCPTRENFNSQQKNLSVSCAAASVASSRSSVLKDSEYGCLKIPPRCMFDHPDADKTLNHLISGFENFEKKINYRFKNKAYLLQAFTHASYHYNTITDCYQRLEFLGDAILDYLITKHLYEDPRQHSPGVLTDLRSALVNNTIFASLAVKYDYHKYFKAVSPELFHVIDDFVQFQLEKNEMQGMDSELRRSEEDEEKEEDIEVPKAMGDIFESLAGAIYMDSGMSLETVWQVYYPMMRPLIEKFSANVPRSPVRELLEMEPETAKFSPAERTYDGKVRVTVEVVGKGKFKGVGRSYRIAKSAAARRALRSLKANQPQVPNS
Assay: SPR; Biacore S200; 6xHis-NSUN2 (0.2 μg/mL) immobilised on CM5 chip at pH 4.0 by amine coupling; 2-fold serial dilutions of 6xHis-DICER (0.00117–0.6 µM) in 50 mM TrisHCl (pH 8), 50 mM NaCl, 5 mM MgCl2, 2 mM TCEP, 0.05% Tween20; equilibrium (steady-state) fit
Conditions: both partners purified

B1: 6xHis-NSUN2 (recombinant wild-type NSUN2) (enzyme, human, UniProt Q08J23 1-767, looked up)
chain: MGRRSRGRRLQQQQRPEDAEDGAEGGGKRGEAGWEGGYPEIVKENKLFEHYYQELKIVPEGEWGQFMDALREPLPATLRITGYKSHAKEILHCLKNKYFKELEDLEVDGQKVEVPQPLSWYPEELAWHTNLSRKILRKSPHLEKFHQFLVSETESGNISRQEAVSMIPPLLLNVRPHHKILDMCAAPGSKTTQLIEMLHADMNVPFPEGFVIANDVDNKRCYLLVHQAKRLSSPCIMVVNHDASSIPRLQIDVDGRKEILFYDRILCDVPCSGDGTMRKNIDVWKKWTTLNSLQLHGLQLRIATRGAEQLAEGGRMVYSTCSLNPIEDEAVIASLLEKSEGALELADVSNELPGLKWMPGITQWKVMTKDGQWFTDWDAVPHSRHTQIRPTMFPPKDPEKLQAMHLERCLRILPHHQNTGGFFVAVLVKKSSMPWNKRQPKLQGKSAETRESTQLSPADLTEGKPTDPSKLESPSFTGTGDTEIAHATEDLENNGSKKDGVCGPPPSKKMKLFGFKEDPFVFIPEDDPLFPPIEKFYALDPSFPRMNLLTRTTEGKKRQLYMVSKELRNVLLNNSEKMKVINTGIKVWCRNNSGEEFDCAFRLAQEGIYTLYPFINSRIITVSMEDVKILLTQENPFFRKLSSETYSQAKDLAKGSIVLKYEPDSANPDALQCPIVLCGWRGKASIRTFVPKNERLHYLRMMGLEVLGEKKKEGVILTNESAASTGQPDNDVTEGQRAGEPNSPDAEEANSPDVTAGCDPAGVHPPR
notes: RNA m5C-methyltransferase NSUN2, human; The plasmid list is in Supplementary Data 1; also called NSUN2 wt; recombinant NSUN2; source: Sf9 (baculovirus, pFastBac1-NSUN2), purified (Ni-NTA)
Kd: ~500 nM
